Consider five molecules from publication PMC6994259 (Nature, 2020).

First the molecules themselves.
B2: Taf6 (natural protein)
chain: MSTQQQSYTIWSPQDTVKDVAESLGLENINDDVLKALAMDVEYRILEIIEQAVKFKRHSKRDVLTTDDVSKALRVLNVEPLYGYYDGSEVNKAVSFSKVNTSGGQSVYYLDEEEVDFDRLINEPLPQVPRLPTFTTHWLAVEGVQPAIIQNPNLNDIRVSQPPFIRGAIVTALNDNSLQTPVTSTTASASVTDTGASQHLSNVKPGQNTEVKPLVKHVLSKELQIYFNKVISTLTAKSQADEAAQHMKQAALTSLRTDSGLHQLVPYFIQFIAEQITQNLSDLQLLTTILEMIYSLLSNTSIFLDPYIHSLMPSILTLLLAKKLGGSPKDDSPQEIHEFLERTNALRDFAASLLDYVLKKFPQAYKSLKPRVTRTLLKTFLDINRVFGTYYGCLKGVSVLEGESIRFFLGNLNNWARLVFNESGITLDNIEEHLNDDSNPTRTKFTKEETQILVDTVISALLVLKKDLPDLYEGKGEKVTDEDKEKLLERCGVTIGFHILKRDDAKELISAIFFGE
B4: Taf5 (natural protein)
chain: MSQKQSTNQNQNGTHQPQPVKNQRTNNAAGANSGQQPQQQSQGQSQQQGRSNGPFSASDLNRIVLEYLNKKGYHRTEAMLRAESGRTLTPQNKQSPANTKTGKFPEQSSIPPNPGKTAKPISNPTNLSSKRDAEGGIVSSGRLEGLNAPENYIRAYSMLKNWVDSSLEIYKPELSYIMYPIFIYLFLNLVAKNPVYARRFFDRFSPDFKDFHGSEINRLFSVNSIDHIKENEVASAFQSHKYRITMSKTTLNLLLYFLNENESIGGSLIISVINQHLDPNIVESVTAREKLADGIKVLSDSENGNGKQNLEMNSVPVKLGPFPKDEEFVKEIETELKIKDDQEKQLNQQTAGDNYSGANNRTLLQEYKAMNNEKFKDNTGDDDKDKIKDKIAKDEEKKESELKVDGEKKDSNLSSPARDILPLPPKTALDLKLEIQKVKESRDAIKLDNLQLALPSVCMYTFQNTNKDMSCLDFSDDCRIAAAGFQDSYIKIWSLDGSSLNNPNIALNNNDKDEDPTCKTLVGHSGTVYSTSFSPDNKYLLSGSEDKTVRLWSMDTHTALVSYKGHNHPVWDVSFSPLGHYFATASHDQTARLWSCDHIYPLRIFAGHLNDVDCVSFHPNGCYVFTGSSDKTCRMWDVSTGDSVRLFLGHTAPVISIAVCPDGRWLSTGSEDGIINVWDIGTGKRLKQMRGHGKNAIYSLSYSKEGNVLISGGADHTVRVWDLKKATTEPSAEPDEPFIGYLGDVTASINQDIKEYGRRRTVIPTSDLVASFYTKKTPVFKVKFSRSNLALAGGAFRP

The test “Taf6” concerns the target B2. Description: cryo-EM structure.
Test [1] concerns the target B4. Nature of the test: cryo-EM structure.
Test [2] concerns the target T1, Sgf73 (S. cerevisiae, UniProt P53165 1-657).
T1 sequence: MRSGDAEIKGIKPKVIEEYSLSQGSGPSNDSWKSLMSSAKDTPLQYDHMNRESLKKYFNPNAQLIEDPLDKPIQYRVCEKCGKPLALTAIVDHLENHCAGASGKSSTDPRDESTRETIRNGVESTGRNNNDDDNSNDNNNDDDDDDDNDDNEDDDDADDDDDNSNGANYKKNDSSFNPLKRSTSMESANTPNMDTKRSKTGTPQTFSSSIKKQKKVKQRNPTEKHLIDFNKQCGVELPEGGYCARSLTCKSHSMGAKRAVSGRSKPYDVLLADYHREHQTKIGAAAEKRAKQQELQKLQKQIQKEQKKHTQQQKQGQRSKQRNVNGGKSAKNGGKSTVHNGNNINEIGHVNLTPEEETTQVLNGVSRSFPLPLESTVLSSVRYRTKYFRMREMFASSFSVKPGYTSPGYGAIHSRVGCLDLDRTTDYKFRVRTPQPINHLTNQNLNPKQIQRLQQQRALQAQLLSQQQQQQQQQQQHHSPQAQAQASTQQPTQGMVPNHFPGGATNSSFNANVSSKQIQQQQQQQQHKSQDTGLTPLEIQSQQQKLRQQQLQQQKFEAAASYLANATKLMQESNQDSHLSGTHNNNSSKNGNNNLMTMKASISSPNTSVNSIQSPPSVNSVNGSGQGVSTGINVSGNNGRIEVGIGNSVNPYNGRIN
Description: cryo-EM structure.

The target in the next test is T2, Spt7 (S. cerevisiae, UniProt P35177 1-1332).
T2 sequence: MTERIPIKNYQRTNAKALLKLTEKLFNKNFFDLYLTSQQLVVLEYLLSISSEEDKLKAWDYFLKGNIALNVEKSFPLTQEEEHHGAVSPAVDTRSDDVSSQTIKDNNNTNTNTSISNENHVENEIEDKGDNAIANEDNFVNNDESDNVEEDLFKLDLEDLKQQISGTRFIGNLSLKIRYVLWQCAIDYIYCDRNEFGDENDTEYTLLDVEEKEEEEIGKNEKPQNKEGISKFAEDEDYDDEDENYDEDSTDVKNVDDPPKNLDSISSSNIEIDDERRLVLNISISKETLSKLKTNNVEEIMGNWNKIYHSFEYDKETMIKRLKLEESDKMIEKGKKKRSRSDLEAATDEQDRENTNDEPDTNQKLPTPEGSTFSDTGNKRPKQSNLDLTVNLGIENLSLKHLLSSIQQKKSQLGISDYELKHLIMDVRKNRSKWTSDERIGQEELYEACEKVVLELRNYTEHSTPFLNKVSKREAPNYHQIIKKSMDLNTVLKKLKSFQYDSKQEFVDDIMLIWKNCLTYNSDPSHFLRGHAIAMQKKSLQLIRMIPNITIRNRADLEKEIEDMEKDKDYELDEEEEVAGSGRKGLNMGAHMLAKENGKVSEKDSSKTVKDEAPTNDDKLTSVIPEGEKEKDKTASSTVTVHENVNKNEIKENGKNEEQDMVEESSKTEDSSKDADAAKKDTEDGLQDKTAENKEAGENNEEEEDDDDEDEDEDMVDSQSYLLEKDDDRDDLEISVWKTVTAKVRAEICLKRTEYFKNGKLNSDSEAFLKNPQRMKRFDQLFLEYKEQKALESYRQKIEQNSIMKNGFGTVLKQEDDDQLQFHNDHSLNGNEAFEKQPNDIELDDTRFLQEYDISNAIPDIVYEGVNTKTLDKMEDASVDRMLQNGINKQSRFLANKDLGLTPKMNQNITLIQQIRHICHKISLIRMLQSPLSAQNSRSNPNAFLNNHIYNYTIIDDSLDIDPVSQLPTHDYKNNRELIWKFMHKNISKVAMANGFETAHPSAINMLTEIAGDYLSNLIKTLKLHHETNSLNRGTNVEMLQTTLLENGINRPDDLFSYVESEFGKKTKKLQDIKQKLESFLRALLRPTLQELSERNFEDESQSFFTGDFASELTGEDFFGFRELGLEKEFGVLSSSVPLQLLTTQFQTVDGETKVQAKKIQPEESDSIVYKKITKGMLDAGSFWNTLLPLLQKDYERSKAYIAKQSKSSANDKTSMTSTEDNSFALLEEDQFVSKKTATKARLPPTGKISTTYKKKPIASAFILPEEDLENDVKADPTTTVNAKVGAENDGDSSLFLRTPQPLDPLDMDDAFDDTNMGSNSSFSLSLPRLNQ
Description: cryo-EM structure.

Test [3] has as its target B4. Description: affinity purification with mass spectrometry.
The target of test [4] is T1, Sgf73. Description: affinity purification with mass spectrometry.
The target of a further test is Tra1 (S. cerevisiae, UniProt P38811 1-3744). Description: affinity purification with mass spectrometry.
Sequence of Tra1 (P38811 whole entry): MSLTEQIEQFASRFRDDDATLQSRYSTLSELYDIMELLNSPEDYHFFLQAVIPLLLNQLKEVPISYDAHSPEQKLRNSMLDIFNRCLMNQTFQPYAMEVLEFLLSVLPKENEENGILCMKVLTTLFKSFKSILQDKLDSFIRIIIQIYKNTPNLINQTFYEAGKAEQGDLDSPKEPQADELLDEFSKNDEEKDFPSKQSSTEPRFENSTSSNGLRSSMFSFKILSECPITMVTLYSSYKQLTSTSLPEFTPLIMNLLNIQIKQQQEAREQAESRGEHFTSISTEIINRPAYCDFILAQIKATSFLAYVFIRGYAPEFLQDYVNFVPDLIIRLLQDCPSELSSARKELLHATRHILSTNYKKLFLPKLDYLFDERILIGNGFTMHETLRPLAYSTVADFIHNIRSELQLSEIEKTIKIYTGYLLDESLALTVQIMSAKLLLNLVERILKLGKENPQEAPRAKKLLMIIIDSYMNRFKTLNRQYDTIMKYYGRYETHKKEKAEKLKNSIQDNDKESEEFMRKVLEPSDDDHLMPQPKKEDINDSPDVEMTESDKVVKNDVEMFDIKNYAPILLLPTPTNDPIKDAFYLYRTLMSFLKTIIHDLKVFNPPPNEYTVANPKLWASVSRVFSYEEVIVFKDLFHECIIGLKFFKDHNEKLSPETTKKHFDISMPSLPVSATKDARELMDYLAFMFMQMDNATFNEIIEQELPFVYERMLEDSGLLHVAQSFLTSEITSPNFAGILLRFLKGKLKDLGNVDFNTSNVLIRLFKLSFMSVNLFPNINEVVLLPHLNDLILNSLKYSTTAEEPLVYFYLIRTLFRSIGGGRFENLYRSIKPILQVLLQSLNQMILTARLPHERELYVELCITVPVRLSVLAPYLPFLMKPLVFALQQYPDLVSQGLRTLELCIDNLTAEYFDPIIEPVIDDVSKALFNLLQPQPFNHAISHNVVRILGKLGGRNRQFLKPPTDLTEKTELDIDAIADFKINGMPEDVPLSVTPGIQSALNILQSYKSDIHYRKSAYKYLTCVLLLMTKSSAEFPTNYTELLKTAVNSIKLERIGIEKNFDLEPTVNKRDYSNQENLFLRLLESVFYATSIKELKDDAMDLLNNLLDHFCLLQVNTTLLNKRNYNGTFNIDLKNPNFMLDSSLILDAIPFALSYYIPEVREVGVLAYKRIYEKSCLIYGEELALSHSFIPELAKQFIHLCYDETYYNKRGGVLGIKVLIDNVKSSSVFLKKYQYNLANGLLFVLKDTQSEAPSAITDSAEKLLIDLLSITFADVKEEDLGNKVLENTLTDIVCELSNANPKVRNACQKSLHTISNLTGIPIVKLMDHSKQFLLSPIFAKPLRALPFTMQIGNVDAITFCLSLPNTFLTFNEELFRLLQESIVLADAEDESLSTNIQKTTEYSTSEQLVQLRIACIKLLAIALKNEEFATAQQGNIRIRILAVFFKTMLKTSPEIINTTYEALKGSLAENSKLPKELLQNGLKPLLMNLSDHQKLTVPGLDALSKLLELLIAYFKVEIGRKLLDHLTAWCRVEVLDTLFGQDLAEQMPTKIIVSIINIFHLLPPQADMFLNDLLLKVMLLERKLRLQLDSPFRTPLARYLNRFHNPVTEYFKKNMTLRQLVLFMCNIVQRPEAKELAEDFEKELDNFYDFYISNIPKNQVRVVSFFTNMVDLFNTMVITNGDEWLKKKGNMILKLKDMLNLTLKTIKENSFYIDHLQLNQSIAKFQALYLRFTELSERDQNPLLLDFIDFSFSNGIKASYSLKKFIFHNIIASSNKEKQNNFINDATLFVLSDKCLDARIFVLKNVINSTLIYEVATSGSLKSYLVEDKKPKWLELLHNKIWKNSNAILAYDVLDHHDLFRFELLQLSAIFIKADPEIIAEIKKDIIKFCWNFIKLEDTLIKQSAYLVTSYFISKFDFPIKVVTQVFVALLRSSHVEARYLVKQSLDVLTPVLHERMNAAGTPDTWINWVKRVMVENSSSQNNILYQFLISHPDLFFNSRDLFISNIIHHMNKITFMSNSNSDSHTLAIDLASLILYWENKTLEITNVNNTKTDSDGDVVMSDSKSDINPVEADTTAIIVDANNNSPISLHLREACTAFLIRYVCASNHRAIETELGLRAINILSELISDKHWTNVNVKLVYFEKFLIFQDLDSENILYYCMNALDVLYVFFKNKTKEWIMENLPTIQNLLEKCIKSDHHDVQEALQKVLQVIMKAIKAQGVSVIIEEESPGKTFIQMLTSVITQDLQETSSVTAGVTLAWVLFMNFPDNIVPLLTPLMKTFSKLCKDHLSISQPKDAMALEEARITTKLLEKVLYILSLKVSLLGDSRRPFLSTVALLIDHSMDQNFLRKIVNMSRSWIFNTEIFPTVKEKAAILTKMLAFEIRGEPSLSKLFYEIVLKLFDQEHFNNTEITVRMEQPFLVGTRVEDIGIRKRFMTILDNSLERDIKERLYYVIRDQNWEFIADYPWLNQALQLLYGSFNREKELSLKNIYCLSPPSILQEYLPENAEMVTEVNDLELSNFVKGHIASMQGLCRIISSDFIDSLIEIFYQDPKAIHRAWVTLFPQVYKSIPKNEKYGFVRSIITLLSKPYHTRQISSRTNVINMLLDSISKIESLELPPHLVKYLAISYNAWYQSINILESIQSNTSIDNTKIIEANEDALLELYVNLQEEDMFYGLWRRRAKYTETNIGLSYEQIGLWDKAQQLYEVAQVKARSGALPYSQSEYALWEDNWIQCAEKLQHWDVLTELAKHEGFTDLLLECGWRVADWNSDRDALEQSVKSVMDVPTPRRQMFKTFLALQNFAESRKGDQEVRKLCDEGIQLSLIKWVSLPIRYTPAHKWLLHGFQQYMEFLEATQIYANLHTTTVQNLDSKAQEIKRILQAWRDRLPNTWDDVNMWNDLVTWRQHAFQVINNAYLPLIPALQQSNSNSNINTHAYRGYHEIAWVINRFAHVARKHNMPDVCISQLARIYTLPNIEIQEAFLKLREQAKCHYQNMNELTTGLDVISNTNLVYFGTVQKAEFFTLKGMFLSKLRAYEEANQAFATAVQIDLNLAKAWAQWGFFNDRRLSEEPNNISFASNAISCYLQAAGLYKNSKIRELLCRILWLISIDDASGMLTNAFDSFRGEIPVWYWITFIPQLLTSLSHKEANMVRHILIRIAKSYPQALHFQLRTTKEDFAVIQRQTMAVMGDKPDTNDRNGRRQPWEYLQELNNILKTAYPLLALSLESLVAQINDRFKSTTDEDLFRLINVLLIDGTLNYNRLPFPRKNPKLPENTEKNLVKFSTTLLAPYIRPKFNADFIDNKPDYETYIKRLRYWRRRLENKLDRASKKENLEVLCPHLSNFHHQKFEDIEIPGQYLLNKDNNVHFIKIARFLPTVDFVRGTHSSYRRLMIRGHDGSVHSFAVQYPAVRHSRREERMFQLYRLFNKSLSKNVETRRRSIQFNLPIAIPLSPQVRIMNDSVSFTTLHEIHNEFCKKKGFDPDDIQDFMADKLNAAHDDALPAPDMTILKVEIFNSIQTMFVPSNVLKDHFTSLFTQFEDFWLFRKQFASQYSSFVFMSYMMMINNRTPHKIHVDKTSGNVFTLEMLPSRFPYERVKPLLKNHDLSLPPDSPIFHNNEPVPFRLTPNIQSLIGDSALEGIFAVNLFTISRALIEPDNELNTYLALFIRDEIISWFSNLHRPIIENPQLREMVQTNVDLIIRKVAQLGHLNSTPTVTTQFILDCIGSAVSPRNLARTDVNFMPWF

B1: Taf9 (natural protein)
chain: MNGGGKNVLNKNSVGSVSEVGPDSTQEETPRDVRLLHLLLASQSIHQYEDQVPLQLMDFAHRYTQGVLKDALVYNDYAGSGNSAGSGLGVEDIRLAIAARTQYQFKPTAPKELMLQLAAERNKKALPQVMGTWGVRLPPEKYCLTAKEWDLEDPKSM
Take B1: the binding result in the test with Taf6, with Taf5 [1] and with Sgf73 [2] was “binds” each time.
In the case of B2, the binding result with Spt7, with Taf5 [1] and with Sgf73 [2] was “binds” throughout.

B3: Spt20 (natural protein)
chain: MSANSPTGNDPHVFGIPVNATPSNMGSPGSPVNVPPPMNPAVANVNHPVMRTNSNSNANEGTRTLTREQIQQLQQRQRLLLQQRLLEQQRKQQALQNYEAQFYQMLMTLNKRPKRLYNFVEDADSILKKYEQYLHSFEFHIYENNYKICAPANSRLQQQQKQPELTSDGLILTKNNETLKEFLEYVARGRIPDAIMEVLRDCNIQFYEGNLILQVYDHTNTVDVTPKENKPNLNSSSSPSNNNSTQDNSKIQQPSEPNSGVANTGANTANKKASFKRPRVYRTLLKPNDLTTYYDMMSYADNARFSDSIYQQFESEILTLTKRNLSLSVPLNPYEHRDMLEETAFSEPHWDSEKKSFIHEHRAESTREGTKGVVGHIEERDEFPQHSSNYEQLMLIMNERTTTITNSTFAVSLTKNAMEIASSSSNGVRGASSSTSNSASNTRNNSLANGNQVALAAAAAAAAVGSTMGNDNNQFSRLKFIEQWRINKEKRKQQALSANINPTPFNARISMTAPLTPQQQLLQRQQQALEQQQNGGAMKNANKRSGNNATSNNNNNNNNLDKPKVKRPRKNAKKSESGTPAPKKKRMTKKKQSASSTPSSTTMS
Regarding B3, the binding result in the test with Taf5 [3], with Sgf73 [4] and in the test with Tra1 was “binds” each time.
In the case of B4, the binding result with Spt7 is given as “binds”.

B5: Taf10 (natural protein)
chain: MDFEEDYDAEFDDNQEGQLETPFPSVAGADDGDNDNDDSVAENMKKKQKREAVVDDGSENAFGIPEFTRKDKTLEEILEMMDSTPPIIPDAVIDYYLTKNGFNVADVRVKRLLALATQKFVSDIAKDAYEYSRIRSSVAVSNANNSQARARQLLQGQQQPGVQQISQQQHQQNEKTTASKVVLTVNDLSSAVAEYGLNIGRPDFYR
Take B5: the binding result in the test with Spt7 and in the test with Taf5 [1] was “binds” in each case.
